Article PMC9045712 (Science Advances, 2022)

Target: recombinant MCM2 (minichromosome maintenance protein 2), from 6x His-FLAG-TEV-MCM2 (mouse, UniProt P97310 1-904)
Test: co-IP

Sequence of recombinant MCM2 (minichromosome maintenance protein 2), from 6x His-FLAG-TEV-MCM2 (P97310 whole entry): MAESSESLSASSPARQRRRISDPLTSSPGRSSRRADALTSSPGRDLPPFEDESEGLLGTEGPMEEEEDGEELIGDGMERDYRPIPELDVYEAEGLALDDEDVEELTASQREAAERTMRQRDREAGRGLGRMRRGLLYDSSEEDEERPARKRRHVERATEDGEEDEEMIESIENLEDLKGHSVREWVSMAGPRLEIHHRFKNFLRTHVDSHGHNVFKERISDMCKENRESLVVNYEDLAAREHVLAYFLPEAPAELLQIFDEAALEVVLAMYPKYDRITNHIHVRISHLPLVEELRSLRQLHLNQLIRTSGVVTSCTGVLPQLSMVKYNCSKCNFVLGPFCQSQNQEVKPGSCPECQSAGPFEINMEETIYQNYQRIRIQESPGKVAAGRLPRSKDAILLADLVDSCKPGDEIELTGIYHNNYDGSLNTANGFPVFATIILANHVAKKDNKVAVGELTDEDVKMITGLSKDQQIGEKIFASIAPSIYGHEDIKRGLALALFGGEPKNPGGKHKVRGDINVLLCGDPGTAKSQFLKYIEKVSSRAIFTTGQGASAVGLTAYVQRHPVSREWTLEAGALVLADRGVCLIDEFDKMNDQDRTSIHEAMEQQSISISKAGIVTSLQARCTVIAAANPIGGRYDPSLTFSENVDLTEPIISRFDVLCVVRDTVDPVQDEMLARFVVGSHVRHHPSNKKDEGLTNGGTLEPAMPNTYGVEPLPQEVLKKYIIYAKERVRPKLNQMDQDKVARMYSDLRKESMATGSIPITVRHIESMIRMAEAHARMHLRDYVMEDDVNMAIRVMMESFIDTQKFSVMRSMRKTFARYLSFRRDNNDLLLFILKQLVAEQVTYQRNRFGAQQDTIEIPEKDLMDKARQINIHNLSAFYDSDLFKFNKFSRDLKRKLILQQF

B1: recombinant NPM1 (nucleophosmin), from 6x His-FLAG-TEV-NPM1 (natural protein)
chain: MEDSMDMDMSPLRPQNYLFGCELKADKDYHFKVDNDENEHQLSLRTVSLGAGAKDELHIVEAEAMNYEGSPIKVTLATLKMSVQPTVSLGGFEITPPVVLRLKCGSGPVHISGQHLVAVEEDAESEDEDEEDVKLLGMSGKRSAPGGGNKVPQKKVKLDEDDEDDDEDDEDDEDDDDDDFDEEETEEKVPVKKSVRDTPAKNAQKSNQNGKDLKPSTPRSKGQESFKKQEKTPKTPKGPSSVEDIKAKMQASIEKGGSLPKVEAKFINYVKNCFRMTDQEAIQDLWQWRKSL
binding result: binds
